Measured values reported in paper PMC10696041.

Target: mini-procollagen III
Experiment: SPR
Conditions: 50 nM CUB1CUB2*, read off a plot; for response: immobilized mini-procollagen III (437 RU), parent: est. 31; for percent of parent (% binding / WT): immobilized mini-procollagen III (437 and 651 RU), parent: est. 100

Sequence of CUB1CUB2* domains of PCPE-2, WT (from MBP-CUB1CUB2, MBP removed) (Q9UKZ9 whole entry, looked up, stated change not applied, tested part not stated): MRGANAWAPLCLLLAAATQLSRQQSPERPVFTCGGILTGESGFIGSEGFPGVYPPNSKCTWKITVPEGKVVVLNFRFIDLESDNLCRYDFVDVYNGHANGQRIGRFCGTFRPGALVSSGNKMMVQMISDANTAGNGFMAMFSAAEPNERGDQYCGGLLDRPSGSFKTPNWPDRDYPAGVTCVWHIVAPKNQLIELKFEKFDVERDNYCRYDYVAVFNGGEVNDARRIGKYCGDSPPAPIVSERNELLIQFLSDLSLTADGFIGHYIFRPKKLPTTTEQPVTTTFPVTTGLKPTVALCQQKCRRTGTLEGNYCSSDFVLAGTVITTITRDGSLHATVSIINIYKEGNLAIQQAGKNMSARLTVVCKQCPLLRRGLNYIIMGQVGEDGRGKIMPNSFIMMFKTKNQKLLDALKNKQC

| response [RU] | percent of parent (% binding / WT) | Substance |
| --- | --- | --- |
| 1 | 2 | CUB1CUB2* domains of PCPE-2, WT (from MBP-CUB1CUB2, MBP removed) (from UniProt Q9UKZ9) F87A |
| 8.5 | 22 | CUB1CUB2* domains of PCPE-2, WT (from MBP-CUB1CUB2, MBP removed) (from UniProt Q9UKZ9) K46A; E197A; R220A |
| 27 | 97 | CUB1CUB2* domains of PCPE-2, WT (from MBP-CUB1CUB2, MBP removed) (from UniProt Q9UKZ9) R150A |
